Measurements: patent US20120231021A1 (GREEN CROSS, published 2012)
Positions count from the first letter of the chain named.

B1: human antibody ER2 (antibody, V domains shown)
VH: EVQLVESGGGVVQPGGSLRLSCAASGFTFSDYDMSWIRQAPGKGLEWVSGILGGSERSYYRDSVKGRFTISRDNSRKTLYLQMNSLRAEDTAVYYCARHGSPGYTLYAWDYWGQGTTVTVSS
VL: DIVMTQTPLSLPVTPGEPASISCRSNQDLTHSNGNTYLEWYLQKPGQSPRLLIYKVSNRFSGVPDRFSGSGAGTDFTLRISRVEAEDVGVYYCMQGTHWPWTFGQGTKVDIKR
notes: also called ER2 antibody
B2: human antibody ER79 (antibody, V domains shown)
VH: B1 VH
VL: B1 VL with N26S, D28S, L29V, T30D, H31M, S32G, N33I, T36N
notes: also called ER79 antibody

Legend:
[1] = target: T1, epidermal growth factor receptor (EGFR) on tumor cells (A431 epidermoid carcinoma cells); MDA-MB-231 breast … (UniProt P00533 25-1210, limits assumed); test: flow cytometry on A431 cells, 10 µg antibody
T1 construct: whole, on cells; Endogenous receptor of the cell lines; also called EGFR overexpressed in a cancer cell line (A431); EGFR in A431 cells

[2] = target: T2, epidermal growth factor receptor (EGFR) (Sigma, U.S), purified protein (UniProt P00533 25-1210, limits assumed); test: competitive ELISA, EGFR-coated plate with soluble EGFR as competitor (FIG. 9)
T2 construct: also called EGFR antigen
Experimental: 100 μL of EGFR (Sigma, U.S) at a 2 μg/mL dilution in PBS was added to each well of a plate and incubated overnight at 4° C. Each well was washed once with PBST, 300 μL of 1% BSA-PBS solution was added to each well, and stored for 1 hour at room temperature.
2 μg of EGFR was diluted by a two-fold and 10 μL of the diluted EGFR was added to each well of the plate. Then, 90 μL of the antibody diluted to the optimum concentration determined in (1) was added to each well, incubated for 2 hours at room temperature, and washed 4 times with PBST.

| Binder | binding result [1] | fold lower affinity than C225 [2] [times] | percent of affinity relative to C225 and M96 [2] [%] |
| --- | --- | --- | --- |
| B1 | binds | – | – |
| B2 | – | 2 | ~63 |
